B1: peptide SEQ ID No 193 (peptide)
peptide: RFHPTPLLL
B2: peptide SEQ ID No 267 (peptide)
peptide: KYMVYPQTF
B3: peptide SEQ ID No 273 (peptide)
peptide: TYIKPISKL
B4: peptide SEQ ID No 228 (peptide)
peptide: KYTSWYVAL
B5: peptide SEQ ID No 272 (peptide)
peptide: QYLQDAYSF
B6: peptide SEQ ID No 187 (peptide)
peptide: TYLRDQHFL
B7: peptide SEQ ID No 171 (peptide)
peptide: LFIPSSKLLFL
B8: peptide SEQ ID No 226 (peptide)
peptide: VYRDETGELF
B9: peptide SEQ ID No 168 (peptide)
peptide: KYQDILETI
B10: peptide SEQ ID No 179 (peptide)
peptide: MYDSYWRQF
B11: peptide SEQ ID No 181 (peptide)
peptide: LYLDIINLF
B12: peptide SEQ ID No 275 (peptide)
peptide: EYINQGDLHEF
B13: peptide SEQ ID No 191 (peptide)
peptide: VFKASKITF
B14: peptide SEQ ID No 288 (peptide)
peptide: VYVSDIQEL
B15: peptide SEQ ID No 216 (peptide)
peptide: QYSSVFKSL
B16: peptide SEQ ID No 192 (peptide)
peptide: SYALLTYMI
B17: peptide SEQ ID No 211 (peptide)
peptide: YYLEVGKTLI
B18: peptide SEQ ID No 283 (peptide)
peptide: TYGDAGLTYTF
B19: peptide SEQ ID No 185 (peptide)
peptide: IYKVGAPTI
B20: peptide SEQ ID No 162 (peptide)
peptide: VFTRVSSFL
B21: peptide SEQ ID No 271 (peptide)
peptide: LYHDIFSRL
B22: peptide SEQ ID No 164 (peptide)
peptide: KFSSFSLFF
B23: peptide SEQ ID No 158 (peptide)
peptide: HYSQELSLLYL
B24: peptide SEQ ID No 178 (peptide)
peptide: IFIEVFSHF
B25: peptide SEQ ID No 208 (peptide)
peptide: TYTQDFNKF
B26: peptide SEQ ID No 170 (peptide)
peptide: VYEDQVGKF
B27: peptide SEQ ID No 183 (peptide)
peptide: VFTSTARAF
B28: peptide SEQ ID No 215 (peptide)
peptide: YFDKVVTL
B29: peptide SEQ ID No 223 (peptide)
peptide: KYIPYKYVI
B30: peptide SEQ ID No 280 (peptide)
peptide: RYPDNLKHLYL
B31: peptide SEQ ID No 172 (peptide)
peptide: TYTTVPRVAF
B32: peptide SEQ ID No 166 (peptide)
peptide: YYVESGKLF
B33: peptide SEQ ID No 196 (peptide)
peptide: LYIDRPLPYL
B34: peptide SEQ ID No 186 (peptide)
peptide: IFPQFLYQF
B35: peptide SEQ ID No 163 (peptide)
peptide: DYLKGLASF
B36: peptide SEQ ID No 188 (peptide)
peptide: RYFKGLVF
B37: peptide SEQ ID No 214 (peptide)
peptide: LYLKLWNLI
B38: peptide SEQ ID No 210 (peptide)
peptide: IYTMIYRNL
B39: peptide SEQ ID No 174 (peptide)
peptide: VYVGGGQIIHL
B40: peptide SEQ ID No 184 (peptide)
peptide: VFQNFPLLF
B41: peptide SEQ ID No 175 (peptide)
peptide: YYEVHKELF
B42: peptide SEQ ID No 274 (peptide)
peptide: AYLHSHALI
B43: peptide SEQ ID No 282 (peptide)
peptide: KFVDSTFYL
B44: peptide SEQ ID No 217 (peptide)
peptide: FFPPTRQMGLLF
B45: peptide SEQ ID No 189 (peptide)
peptide: WYVNGVNYF
B46: peptide SEQ ID No 180 (peptide)
peptide: IYDDSFIRPVTF
B47: peptide SEQ ID No 276 (peptide)
peptide: VYGFQWRHF
B48: peptide SEQ ID No 165 (peptide)
peptide: DYTTWTALL
B49: peptide SEQ ID No 173 (peptide)
peptide: IYSWILDHF
B50: peptide SEQ ID No 167 (peptide)
peptide: NYINRILKL
B51: peptide SEQ ID No 177 (peptide)
peptide: VYPWLGALL
B52: peptide SEQ ID No 195 (peptide)
peptide: TYSVSFPMF
B53: peptide SEQ ID No 198 (peptide)
peptide: LYLDKATLI
B54: peptide SEQ ID No 169 (peptide)
peptide: AYTLIAPNI
B55: peptide SEQ ID No 176 (peptide)
peptide: EYNQWFTKL
B56: peptide SEQ ID No 279 (peptide)
peptide: TYIESASEL
B57: peptide SEQ ID No 278 (peptide)
peptide: RYISDQLFTNF
B58: peptide SEQ ID No 160 (peptide)
peptide: VYTLDIPVL
B59: peptide SEQ ID No 194 (peptide)
peptide: EFGSLHLEFL
B60: peptide SEQ ID No 284 (peptide)
peptide: RYLNKAFHI
B61: peptide SEQ ID No 161 (peptide)
peptide: IYLVSIPEL
B62: peptide SEQ ID No 227 (peptide)
peptide: IFLDYEAGTLSF
B63: peptide SEQ ID No 159 (peptide)
peptide: LYNKGFIYL
B64: peptide SEQ ID No 219 (peptide)
peptide: EYPLVINTL
B65: peptide SEQ ID No 221 (peptide)
peptide: RYSTGLAGNLL
B66: peptide SEQ ID No 190 (peptide)
peptide: GFFIFNERF
B67: peptide SEQ ID No 182 (peptide)
peptide: IYQLDTASI
B68: peptide SEQ ID No 224 (peptide)
peptide: QYLENLEKL
B69: peptide SEQ ID No 203 (peptide)
peptide: FYSRLLQKF
B70: peptide SEQ ID No 206 (peptide)
peptide: EYQENFLSF
B71: peptide SEQ ID No 205 (peptide)
peptide: VHIPEVYLI
B72: peptide SEQ ID No 286 (peptide)
peptide: RYPDNLKHL
B73: peptide SEQ ID No 225 (peptide)
peptide: YYVYIMNHL
B74: peptide SEQ ID No 289 (peptide)
peptide: KYPVEWAKF
B75: peptide SEQ ID No 197 (peptide)
peptide: EYSLFPGQVVI

target: HLA-A*24 (human); test: UV-ligand exchange ELISA

For B1, which peptide exchange yield is on record?
The peptide exchange yield was over 75%.

B2 was tested. Which peptide exchange yield did it give?
The peptide exchange yield was over 75%.

With B3 as the binder, how does the peptide exchange yield read?
Its peptide exchange yield is 50 to 75%.

With B4 as the binder, how does the peptide exchange yield read?
The peptide exchange yield was over 75%.

B5 was tested. Which peptide exchange yield did it give?
Its peptide exchange yield is over 75%.

For B6, which peptide exchange yield is on record?
The peptide exchange yield was over 75%.

How did the peptide exchange yield turn out when B7 was run?
The peptide exchange yield was 50 to 75%.

Which peptide exchange yield does the source give for B8 here?
Its peptide exchange yield is 50 to 75%.

For B9, which peptide exchange yield is on record?
Its peptide exchange yield is over 75%.

With B10 as the binder, how does the peptide exchange yield read?
The peptide exchange yield was over 75%.

B11 was tested. Which peptide exchange yield did it give?
The peptide exchange yield was over 75%.

B12 was tested. Which peptide exchange yield did it give?
Its peptide exchange yield is 50 to 75%.

With B13 as the binder, how does the peptide exchange yield read?
The peptide exchange yield was 50 to 75%.

For B14, which peptide exchange yield is on record?
Its peptide exchange yield is 50 to 75%.

For B15, which peptide exchange yield is on record?
The peptide exchange yield was over 75%.

How did the peptide exchange yield turn out when B16 was run?
The peptide exchange yield was over 75%.

With B17 as the binder, how does the peptide exchange yield read?
Its peptide exchange yield is over 75%.

With B18 as the binder, how does the peptide exchange yield read?
Its peptide exchange yield is 50 to 75%.

For B19, which peptide exchange yield is on record?
The peptide exchange yield was 50 to 75%.

With B20 as the binder, how does the peptide exchange yield read?
Its peptide exchange yield is 50 to 75%.

For B21, which peptide exchange yield is on record?
The peptide exchange yield was over 75%.

For B22, which peptide exchange yield is on record?
Its peptide exchange yield is 50 to 75%.

For B23, which peptide exchange yield is on record?
Its peptide exchange yield is over 75%.

How did the peptide exchange yield turn out when B24 was run?
The peptide exchange yield was 50 to 75%.

For B25, which peptide exchange yield is on record?
Its peptide exchange yield is 50 to 75%.

With B26 as the binder, how does the peptide exchange yield read?
Its peptide exchange yield is 20 to 49%.

With B27 as the binder, how does the peptide exchange yield read?
Its peptide exchange yield is 50 to 75%.

How did the peptide exchange yield turn out when B28 was run?
The peptide exchange yield was 20 to 49%.

Which peptide exchange yield does the source give for B29 here?
Its peptide exchange yield is 50 to 75%.

With B30 as the binder, how does the peptide exchange yield read?
The peptide exchange yield was over 75%.

How did the peptide exchange yield turn out when B31 was run?
Its peptide exchange yield is over 75%.

For B32, which peptide exchange yield is on record?
Its peptide exchange yield is over 75%.

How did the peptide exchange yield turn out when B33 was run?
Its peptide exchange yield is 50 to 75%.

For B34, which peptide exchange yield is on record?
The peptide exchange yield was over 75%.

With B35 as the binder, how does the peptide exchange yield read?
The peptide exchange yield was over 75%.

Which peptide exchange yield does the source give for B36 here?
Its peptide exchange yield is 50 to 75%.

Which peptide exchange yield does the source give for B37 here?
The peptide exchange yield was 50 to 75%.

With B38 as the binder, how does the peptide exchange yield read?
The peptide exchange yield was over 75%.

Which peptide exchange yield does the source give for B39 here?
The peptide exchange yield was 50 to 75%.

B40 was tested. Which peptide exchange yield did it give?
Its peptide exchange yield is over 75%.

How did the peptide exchange yield turn out when B41 was run?
Its peptide exchange yield is over 75%.

How did the peptide exchange yield turn out when B42 was run?
Its peptide exchange yield is over 75%.

Which peptide exchange yield does the source give for B43 here?
Its peptide exchange yield is over 75%.

With B44 as the binder, how does the peptide exchange yield read?
Its peptide exchange yield is over 75%.

With B45 as the binder, how does the peptide exchange yield read?
The peptide exchange yield was 20 to 49%.

Which peptide exchange yield does the source give for B46 here?
The peptide exchange yield was 50 to 75%.

Which peptide exchange yield does the source give for B47 here?
Its peptide exchange yield is over 75%.

B48 was tested. Which peptide exchange yield did it give?
The peptide exchange yield was over 75%.

B49 was tested. Which peptide exchange yield did it give?
The peptide exchange yield was over 75%.

B50 was tested. Which peptide exchange yield did it give?
Its peptide exchange yield is over 75%.

With B51 as the binder, how does the peptide exchange yield read?
The peptide exchange yield was over 75%.

With B52 as the binder, how does the peptide exchange yield read?
The peptide exchange yield was over 75%.

Which peptide exchange yield does the source give for B53 here?
The peptide exchange yield was 50 to 75%.

How did the peptide exchange yield turn out when B54 was run?
The peptide exchange yield was 50 to 75%.

How did the peptide exchange yield turn out when B55 was run?
Its peptide exchange yield is 50 to 75%.

B56 was tested. Which peptide exchange yield did it give?
Its peptide exchange yield is 50 to 75%.

For B57, which peptide exchange yield is on record?
The peptide exchange yield was over 75%.

Which peptide exchange yield does the source give for B58 here?
The peptide exchange yield was over 75%.

With B59 as the binder, how does the peptide exchange yield read?
The peptide exchange yield was under 20%.

With B60 as the binder, how does the peptide exchange yield read?
The peptide exchange yield was 50 to 75%.

B61 was tested. Which peptide exchange yield did it give?
Its peptide exchange yield is over 75%.

Which peptide exchange yield does the source give for B62 here?
Its peptide exchange yield is over 75%.

For B63, which peptide exchange yield is on record?
The peptide exchange yield was over 75%.

B64 was tested. Which peptide exchange yield did it give?
The peptide exchange yield was 50 to 75%.

How did the peptide exchange yield turn out when B65 was run?
Its peptide exchange yield is 50 to 75%.

For B66, which peptide exchange yield is on record?
The peptide exchange yield was 50 to 75%.

How did the peptide exchange yield turn out when B67 was run?
The peptide exchange yield was 50 to 75%.

Which peptide exchange yield does the source give for B68 here?
The peptide exchange yield was 50 to 75%.

With B69 as the binder, how does the peptide exchange yield read?
The peptide exchange yield was 50 to 75%.

Which peptide exchange yield does the source give for B70 here?
The peptide exchange yield was 50 to 75%.

How did the peptide exchange yield turn out when B71 was run?
The peptide exchange yield was 50 to 75%.

With B72 as the binder, how does the peptide exchange yield read?
The peptide exchange yield was 20 to 49%.

With B73 as the binder, how does the peptide exchange yield read?
The peptide exchange yield was 50 to 75%.

How did the peptide exchange yield turn out when B74 was run?
The peptide exchange yield was over 75%.

How did the peptide exchange yield turn out when B75 was run?
Its peptide exchange yield is 50 to 75%.

Source: patent US20170189507A1
